In patent US10227575B2, “Multi-domain enzymes having cutinase activity, compositions comprising same and uses thereof” (OZYMES, priority 2015, dated 2019):
Marks after values point to notes of the source that are not given here.

Legend:
[1] = Thermostability of purified enzymes; format: physicochemical
Protocol: Enzyme thermostability was studied over a temperature range of 50-95° C. using the purified enzyme preparations. Aliquots were incubated at the desired temperature for 5, 10, 30, 60, and 120 minutes, chilled on ice, and assayed for remaining activity towards p-NP-palmitate (pNPP) at room temperature.

Temperature optimum = format: biochemical; conditions: for Relative activity at temperature: highest activity set to 100%
Protocol: For estimation of the temperature optimum, buffer containing pNP-palmitate (see esterase assay in Example 20.1) was pre-incubated to reach the desired temperature, enzyme was then added, and the formation of pNP was assayed. For this experiment, Tris/HCl buffer was replaced with sodium phosphate buffer (50 mM, pH 8.0) to avoid a pH shift at the different temperatures.

[2] = Stability of KrCUT in stabilisation buffer; format: physicochemical
Protocol: For stability testing, culture medium showing KrCUT activity, and containing 100 mg total protein was used. Stabilisation buffer composed of sodium gluconate 1-5%, sodium carbonate 1-5%, sodium citrate 1-5% and propylene glycol 1-5% was prepared; 50 mL enzyme solution was added to 200 mL of buffer and stored at room temperature, after mixing. Samples were taken at defined time periods and the enzymatic activity was measured using p-nitrophenyl dodecanoate as substrate.

[3] = Hydrolysis of cutin, GC-MS of released monomers; format: biochemical, Apple (Golden Delicious)
Protocol: Apple (Golden Delicious) cutin was used as substrate. The outer layer of the fruit was peeled by hand and cutin preparation carried out as described by Gerard et al. (1993) with minor modifications. Discs of apple peels were incubated at 50° C. in oxalate buffer [(oxalic acid (4 g/L)/ammonium oxalate (16 g/L)] for 16 h and then collected and washed several times with deionized water. The sample was treated with 0.5% Novozymes Aspergillus niger pectinase (Sigma P2736) in 100 mM phosphate citrate buffer pH 5.8 for 16 h. The cutin sheets were washed with ethanol, followed by several washes with chloroform, and then incubated in chloroform at 45° C. for 16 h, and finally dried to constant weight. The cutin was ground in a Cyclone sample Mill (UDY Corporation, Fort Collings, Colo., USA).
A typical reaction mixture (2 mL) contained 20 mg cutin and an appropriate amount of cutinase in 25 mM sodium phosphate buffer, pH 8.0. The mixture was incubated in a water bath at 37° C. with gentle shaking for 16 h. Assays were conducted in duplicate. At the end of the reaction, the remaining cutin was removed by centrifugation (10 min, 5000 rpm). The resulting solution was acidified with hydrochloric acid and cutin monomers extracted with chloroform/methanol, according to Bligh and Dyer (1959). The organic phase was removed by evaporation under an air stream and the dried residue dissolved in 1 mL chloroform/methanol (85:15) and used for further derivatization. Trimethylsilylation of cutin monomers was performed with BSTFA [N, O-bis(trimethylsilyl) trifluoroactamide] and TMCS (trimethylchlorosilane) provided by the supplier in the ratio 99:1 (Supelco, Bellefonte, USA) at 70° C. for 3 h, and the composition of the mixture determined by GC-MS.
Cutin monomers were identified by GC-MS on an Agilent 6890 gas chromatography system coupled to a 5973 quadrupole mass spectrometer. 1 μL was injected under splitless condition on a 50 m×0.20 mm×0.33 μm DB-5MS capillary column (Agilent). The oven temperature program was 70° C. (for 1.39 min) to 136° C. at 64° C./min and to 290° C. at 2.5° C./min (for 55 min). Helium was used as carrier gas. The temperature at the injection port was 250° C. The detector was run in El mode at 70 eV. Masses were scanned between 50 and 650 amu.
Components were identified by comparison of the MS spectra of their trimethylsilyl (TMSi) derivatives, as methyl ester TMSi ether or as TMSi ester TMSi ether, with published spectra (Kallio et al., 2006; Philipps et al., 2002).
To measure cutinase activity, assays of cutin hydrolysis were performed as described in Example 1, section 1.7 at two different enzyme concentrations. Characteristic cutin components, C16 and C18 hydroxyl fatty acids, were identified by GC-MS analysis.

[4] = Thermostability of purified KrCUT (40-60° C.); format: biochemical
Protocol: Enzyme stability was studied over the temperature range of 40-60° C. using purified KrCUT. Aliquots were withdrawn at defined times (10, 30 and 80 min), chilled on ice, and assayed for activity against p-NP butyrate at room temperature. KrCUT appeared thermostable up to 45° C.

[5] = Degradation of poly(1,3-propylene adipate); conditions: 2.5 μM, after 24 hours
[6] = Substrate range on p-NP esters, KrCUT versus KrCUT189; format: biochemical
Protocol: (§1) Esterase activity was determined by monitoring the formation of pNP at 410 nm from various pNP-esters using a Beckman UV spectrophotometer (model DU 640) (21). Substrates were dissolved in isopropanol and were added to 50 mM sodium phosphate buffer pH 8.0 to give 10% (v/v) total isopropanol concentration in a 1 mL reaction volume. pNP-butyrate was used at a final concentration of 1.2 mM. For pNP-caprylate, myristate and palmitate, the final concentration ranged from 0.1 to 0.5 mM. The reaction (1 mL) was started by adding an appropriate amount of enzyme. One enzyme unit (U) is defined as the amount of enzyme that produced 1 μmol of product (pNP) per min; specific activity is expressed as U/mg protein. A molar extinction coefficient of 15 mM^−1 cm^−1 for pNP is used for calculating enzyme activity.

[7] = Esterase assay, specific activity of KrCUT versus YebF-KrCUT; format: biochemical; conditions: pNP-palmitate as substrate
Protocol: as §1
The presence of YebF appeared to greatly decrease the activity of the fusion proteins. […] The results are shown in FIG. 6, in which fractions C1-C10 correspond to the first peak (KrCUT) and fractions D9-D11 correspond to the second peak (YebF-KrCUT).

B1: Cf-TP: chimeric variant: catalytic and polymer binding domains of CfCUT with T/P-rich linker domain of KrCUT, SEQ ID NO: 29 (protein)
chain: APACPDVELVFARGTGEAAGLGIVGRPLERALAAELPGRTVVATAVDYAASSSQASAGPGSGDMVAKVRSRAAACPGTQFVLGGYSQGATVTDLALGIRTGVTAGTALPEDLAARVAAVVVYGNPLGLTRRTIAQAAPAFATRTVEYCNAGDPVCEPGGGRFTAHITYATNGTVLEGARFAAARVTAAGTPTTPTPTPTPTPVPTTCVTASSLQHVRDGRAYPLWMRTYARGSGDPLGVLSSRTVVSLQADGTDTWRKVAAC
modifications: YebF carrier; Cf-TP variant
Relative activity remaining (thermostability) ([1]; 10 min): 43 ± 3% | Temp. opt. (° C.) (Temperature optimum): 35 °C | Relative activity at temperature (Temperature optimum; 20 ° C.): 54 ± 5% | Relative activity at temperature (Temperature optimum; 25 ° C.): 84 ± 9% | Relative activity at temperature (Temperature optimum; 30 ° C.): 95 ± 5% | Relative activity at temperature (Temperature optimum; 35 ° C.): 100* % | Relative activity at temperature (Temperature optimum; 40 ° C.): 89 ± 6% | Relative activity at temperature (Temperature optimum; 45 ° C.): 72 ± 7% | Relative activity at temperature (Temperature optimum; 50 ° C.): 37 ± 6% | Relative activity at temperature (Temperature optimum; 55 ° C.): 9 ± 1%

B2: Am-Kr: chimeric variant: AmCUT fused to the T/P-rich linker domain and polymer binding domain of KrCUT, SEQ ID NO: 27 (protein)
chain: ACSDLEIVFARGSGEAPGLGITGTPLVSDVKSALSSASVSSYAVDYAASYDQTSAGPGATDMSNHIKSTAAACPDTKFAIGGYSQGASVTDIAIGIRTYLGTGQTIPTELAPRVVAVIAFGNPLGLYGQTIKTASPTYGPKSLEFCNRGDNVCGGTGTGPGYGHLSYARDGSVDQAAAFIAKQYNASAGTPTTPTPTPTPTPVPTTCVRDSTRDHVAADRAVSLYGRAYARGSRDSLGATSSYNVVSLQQVEGGWRLVTAC
modifications: YebF carrier; Am-Kr variant
Temp. opt. (° C.) (Temperature optimum): 45 °C | Relative activity at temperature (Temperature optimum; 20 ° C.): 50 ± 2% | Relative activity at temperature (Temperature optimum; 25 ° C.): 61 ± 2% | Relative activity at temperature (Temperature optimum; 30 ° C.): 69 ± 2% | Relative activity at temperature (Temperature optimum; 35 ° C.): 78 ± 1% | Relative activity at temperature (Temperature optimum; 40 ° C.): 87 ± 2% | Relative activity at temperature (Temperature optimum; 45 ° C.): 100* % | Relative activity at temperature (Temperature optimum; 50 ° C.): 81 ± 10% | Relative activity at temperature (Temperature optimum; 55 ° C.): 37 ± 5% | Relative activity at temperature (Temperature optimum; 60 ° C.): 9 ± 1%

B3: CfCUT: mature wild-type cutinase from Cellulomonas flavigena, SEQ ID NO: 28 (protein, listed as Cellulomonas flavigena)
chain: APACPDVELVFARGTGEAAGLGIVGRPLERALAAELPGRTVVATAVDYAASSSQASAGPGSGDMVAKVRSRAAACPGTQFVLGGYSQGATVTDLALGIRTGVTAGTALPEDLAARVAAVVVYGNPLGLTRRTIAQAAPAFATRTVEYCNAGDPVCEPGGGRFTAHITYATNGTVLEGARFAAARVTAPAPTPTPGPTGTPAPVPSAEPTPAPGDTCVTASSLQHVRDGRAYPLWMRTYARGSGDPLGVLSSRTVVSLQADGTDTWRKVAAC
Temp. opt. (° C.) (Temperature optimum): 25 °C | Relative activity at temperature (Temperature optimum; 20 ° C.): 69 ± 2% | Relative activity at temperature (Temperature optimum; 25 ° C.): 100* % | Relative activity at temperature (Temperature optimum; 30 ° C.): 63 ± 7% | Relative activity at temperature (Temperature optimum; 35 ° C.): 45 ± 5% | Relative activity at temperature (Temperature optimum; 40 ° C.): 38 ± 8% | Relative activity at temperature (Temperature optimum; 45 ° C.): 1%

B4: KrCUT: mature Kineococcus radiotolerans cutinase, amino acids 34-294 of SEQ ID NO: 1; SEQ ID NO: 6 (protein)
chain: ATCSDVDVVFARGTGETPGLGVVGGPFVRSLTGELSDRTVTSHAVDYAASSSQASAGPGATAMSAHVREVAAACPSTRFVLGGYSQGATVTDIALGIRTGTTTGTPVPAELAGRVAAVVVFGNPLGLSGRTIATASSTYGPKSKDYCNSSDSVCGSAPKTGTGGHLSYASNGSTTDGARFAAGLVRAAGTPTTPTPTPTPTPVPTTCVRDSTRDHVAADRAVSLYGRAYARGSRDSLGATSSYNVVSLQQVEGGWRLVTAC
modifications: Kineococcus radiotolerans; (1)..(261) KrCUT (lacking residues 1-33 of ssKrCUT)
Relative activity remaining (thermostability) ([1]; 50° C., 5 min, time 0 = 100%): 61 ± 5% | Relative activity remaining (thermostability) ([1]; 50° C., 10 min, time 0 = 100%): 31 ± 4% | Relative activity remaining (thermostability) ([1]; 50° C., 30 min, time 0 = 100%): 12 ± 2% | Relative activity remaining (thermostability) ([1]; 50° C., 60 min, time 0 = 100%): 6% | Relative activity remaining (thermostability) ([1]; 55° C., 5 min, time 0 = 100%): 45 ± 4% | Relative activity remaining (thermostability) ([1]; 55° C., 10 min, time 0 = 100%): 26 ± 4% | Relative activity remaining (thermostability) ([1]; 55° C., 30 min, time 0 = 100%): 4% | Relative activity remaining (thermostability) ([1]; 60° C., 5 min, time 0 = 100%): 34 ± 4% | Relative activity remaining (thermostability) ([1]; 60° C., 10 min, time 0 = 100%): 12 ± 2% | Relative activity remaining (thermostability) ([1]; 65° C., 5 min, time 0 = 100%): 19 ± 2% | initial activity present ([2]; 9 months at room temperature): up to 65% | time after which activity loss could be observed ([2]; room temperature): 4 months | Temp. opt. (° C.) (Temperature optimum): 45 °C | Relative activity at temperature (Temperature optimum; 20 ° C.): 83 ± 5% | Relative activity at temperature (Temperature optimum; 25 ° C.): 84 ± 4% | Relative activity at temperature (Temperature optimum; 30 ° C.): 83 ± 4% | Relative activity at temperature (Temperature optimum; 35 ° C.): 84 ± 4% | Relative activity at temperature (Temperature optimum; 40 ° C.): 89 ± 6% | Relative activity at temperature (Temperature optimum; 45 ° C.): 100* % | Relative activity at temperature (Temperature optimum; 50 ° C.): 90 ± 4% | Relative activity at temperature (Temperature optimum; 55 ° C.): 38 ± 3% | Relative activity at temperature (Temperature optimum; 60 ° C.): 15 ± 5% | 10,16-dihydroxyhexadecanoic acid released, Area (%) ([3]; 20 Units cutinase): 39.25 ± 2.5% | 18-hydroxy-octadeca-9,12-dienoic acid released, Area (%) ([3]; 20 Units cutinase): 18.0 ± 6.3% | 9,10,18-trihydroxyoctadec-9 enoic acid released, Area (%) ([3]; 200 Units cutinase): 6.25 ± 0.40% | 9,10,18-trihydroxyoctadec-10,12-dienoic acid released, Area (%) ([3]; 200 Units cutinase): 13.25 ± 0.40% | 9,10,18-trihydroxyoctadecanoic acid released, Area (%) ([3]; 200 Units cutinase): 25.55 ± 0.10% | 9,16-dihydroxyhexadecanoic acid released, Area (%) ([3]; 200 Units cutinase): 3.81 ± 0.62% | 10,16-dihydroxyhexadecanoic acid released, Area (%) ([3]; 200 Units cutinase): 27.74 ± 0.41% | 18-hydroxy-octadeca-9,12-dienoic acid released, Area (%) ([3]; 200 Units cutinase): 2.22 ± 0.13% | thermostable up to ([4]; 10, 30 and 80 min heat treatment): up to 45 °C | activity left after heat treatment ([4]; 50° C. and above, 10 min): virtually no activity left | adipic acid found in the reaction mixture [5]: 12% | activity towards pNB-acetate [6]: little activity | fold higher activity with pNP butyrate over pNP-palmitate [6]: 8 fold | substrate giving the highest activity ([6]; p-NP esters): pNP butyrate | specific activity [7]: 162 U/mg
